Test results as given in article PMC9645710, “Cryo-EM structures of peripherin-2 and ROM1 suggest multiple roles in photoreceptor membrane morphogenesis” (Science Advances, 2022).
Substitutions are numbered along the chain they refer to. In names and notes the source's numbering stands. Blank lines part the entries; values can stand above or below the binder they belong to.

How the values were obtained:
[1] = molecular target: T1, ROM1 (human rod outer segment membrane protein 1, N-terminal Strep3-GFP tag) (human, UniProt Q03395); test: cryo-EM structure; PRPH2^C150S-ROM1 purified in 25 mM tris-HCl, 150 mM NaCl, pH 7.5, 0.025% DDM/CHS, incubated with an excess of Nanobody19, ~9 mg/ml; single-particle map at 3.7 A; conditions: both partners purified
T1 construct: rod outer segment membrane protein 1 (ROM1), human, full length; codon-optimized cDNA from GeneArt in a pUPE vector; Residues 323 to 351 were not modelled in the structure; also called retinal outer segment protein 1; source: HEK293T, transiently transfected together with PRPH2^C150S, solubilized in DDM/CHS, purified (Strep-Tactin, SEC); not shown: Strep3, N-terminal, kept

[2] = molecular target: T2, PRPH2^C150S-ROM1 heterodimer (human, UniProt P23942;Q03395, C150S, N-acetylglucosamine on Asn229 (density in the map); possible glycosylation at Asn53); test: as above; conditions: both partners purified
T2 construct: peripherin-2 (PRPH2), human, full length; as m1; rod outer segment membrane protein 1 (ROM1), human, full length; as m2; Formed and purified before Nanobody19 was added; also called PRPH2^C150S-ROM1 complex; PRPH2-ROM1 heterodimer; source: HEK293T, transiently co-transfected, solubilized in DDM/CHS, purified (Strep-Tactin, SEC); not shown: Strep3, N-terminal, kept; copies: 1 + 1
T2 sequence (Q03395 whole entry, stated change not applied, one chain of several): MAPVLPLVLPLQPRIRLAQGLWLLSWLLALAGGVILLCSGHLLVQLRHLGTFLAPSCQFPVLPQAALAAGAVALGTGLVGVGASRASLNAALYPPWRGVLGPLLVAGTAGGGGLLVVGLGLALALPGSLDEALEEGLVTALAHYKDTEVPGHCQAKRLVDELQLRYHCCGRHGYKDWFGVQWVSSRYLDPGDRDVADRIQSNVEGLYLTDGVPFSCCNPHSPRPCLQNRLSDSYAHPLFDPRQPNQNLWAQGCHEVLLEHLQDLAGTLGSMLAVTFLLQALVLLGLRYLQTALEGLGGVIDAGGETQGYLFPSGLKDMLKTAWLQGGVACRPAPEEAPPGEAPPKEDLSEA

[3] = molecular target: T3, ROM1 (human rod outer segment membrane protein 1, N-terminal Strep3-GFP tag) (human, UniProt Q03395 1-351); test: as above; conditions: both partners purified
T3 construct: rod outer segment membrane protein 1 (ROM1), human, full length; codon-optimized cDNA from GeneArt in a pUPE vector; Residues 323 to 351 were not modelled in the structure; also called retinal outer segment protein 1; source: HEK293T, transiently transfected together with PRPH2^C150S, solubilized in DDM/CHS, purified (Strep-Tactin, SEC); not shown: Strep3, N-terminal, kept

[4] = molecular target: T4, ROM1 (human rod outer segment membrane protein 1, wild type, N-terminal Strep3 tag) (human, UniProt Q03395 1-351); test: cryo-EM structure; wild-type PRPH2-ROM1, one SEC fraction of heterogeneous complexes in 0.025% DDM/CHS, ~3.6 mg/ml; maps of tetramer, hexamer and octamer at ~7-8 A with the heterodimer docked in; the sizes count chains of PRPH2 and ROM1 together; conditions: both partners purified
T4 construct: rod outer segment membrane protein 1 (ROM1), human, full length; codon-optimized cDNA from GeneArt in a pUPE vector; source: HEK293T, transiently transfected together with PRPH2, solubilized in DDM/CHS, purified (Strep-Tactin, SEC); not shown: Strep3, N-terminal, kept
T4 sequence (Q03395 whole entry): as the sequence (Q03395 whole entry, stated change not applied, one chain of several) above

[5] = molecular target: the molecule itself; test: SEC; PRPH2 and ROM1 (wild type or cysteine mutants) expressed in HEK293T, solubilized in DDM/CHS; Superdex 200 Increase 10/300 GL, 25 mM tris-HCl, 150 mM NaCl, pH 7.5, 0.025% DDM/CHS; no reducing agent

- binding result [1]: binds
- stoichiometry N [2]: 1
B1: Nanobody19 (VHH)
VHH: QVQLQESGGGLVQAGGSLRLSCAASTRTTSRYTVGWFCQAPGKEREFVAAVHWSGGSTWYADSVKGRFTISRDNAKNTVYLQMNSLKQEDTAVYYCAAAEPRRYSYYMRPDEYNYWGQGTQVTVSS
notes: modelled in the deposited structure PDB 7ZW1; also called Nb19; source: E. coli BL21(DE3), purified (Ni-NTA, SEC)

- binding result [3]: binds
B2: PRPH2^C150S (human peripherin-2 with mutation C150S, N-terminal 6x-His tag) (natural protein, UniProt P23942 1-346, looked up)
chain: MALLKVKFDQKKRVKLAQGLWLMNWFSVLAGIIIFSLGLFLKIELRKRSDVMNNSESHFVPNSLIGMGVLSCVFNSLAGKICYDALDPAKYARWKPWLKPYLAICVLFNIILFLVALCCFLLRGSLENTLGQGLKNGMKYYRDTDTPGRSFMKKTIDMLQIEFKCCGNNGFRDWFEIQWISNRYLDFSSKEVKDRIKSNVDGRYLVDGVPFSCCNPSSPRPCIQYQITNNSAHYSYDHQTEELNLWVRGCRAALLSYYSSLMNSMGVVTLLIWLFEVTITIGLRYLQTSLDGVSNPEESESESQGWLLERSVPETWKAFLESVKKLGKGNQVEAEGADAGQAPEAG
modifications: N-acetylglucosamine on Asn229 (density in the map); possible glycosylation at Asn53
notes: peripherin-2 (PRPH2), human, full length; codon-optimized cDNA from GeneArt in a pUPE vector; Residues 322 to 346 were not modelled in the structure; source: HEK293T, transiently transfected together with ROM1, solubilized in DDM/CHS, purified (Strep-Tactin through ROM1, SEC)

- binding result [4]: binds
B3: PRPH2 (human peripherin-2, wild type, N-terminal 6x-His tag) (natural protein, UniProt P23942 1-346, looked up)
chain: B2 chain with S150C
notes: peripherin-2 (PRPH2), human, full length; codon-optimized cDNA from GeneArt in a pUPE vector; The tag is told for the oligomer preparation; source: HEK293T, transiently transfected together with ROM1, solubilized in DDM/CHS, purified (Strep-Tactin through ROM1, SEC)
- stoichiometry N [5]: 2
